According to PMC11289419, “Modular RNA motifs for orthogonal phase separated compartments”:

T1: P22 N peptide (bacteriophage P22, UniProt P04891 14-30)
T1 chain: NAKTRRHERRRKLAIER

B1: 4m3 nanostar with streptavidin aptamer (structured_RNA)
RNA 1: GAUGCGGCCGCCGACCAGAAUCAUGCAAGUGCGUAAGAUAGUCGCGGGUCGGCGGCCGCAUCGCGCAUCCACGGCGUGUCGCAAGACGCCGACGCGUCG
RNA 2: GCGCAGUCGGGAUAUACCGGAAGCGACACGCCGUGGA
RNA 3: GCGCAAGUCCACAGUGGCGCAACCGGUAUAUCCCGAC
RNA 4: GCGCACGACGCGUCGGCGUCAAGCGCCACUGUGGACU
B2: 4m5 nanostar with P22 boxB (structured_RNA)
RNA 1: GGUGCGCUGACAAAGCGCGCCGAGCUCAGAGUCUCUGGUCGCCAAGCUUAUCGGACACUG
RNA 2: GAGCUCAAGUAGGCACAUCAGCAAGGCGACCAGAGACUC
RNA 3: GAGCUCAUGCGUGGAGACAACGAAGCUGAUGUGCCUACU
RNA 4: GAGCUCACAGUGUCCGAUAAGCAACGUUGUCUCCACGCA

What was measured:
[1] = target: streptavidin (fluorescently labeled) (UniProt P22629 25-183); test: fluorescence microscopy recruitment to RNA condensate; 25% aptamer strand; Multi-stranded: 40 mM HEPES, 100 mM KCl, 500 mM NaCl, 5 uM strands (1.25 uM aptamer strand), 70 C melt, 12 h hold (50 C), imaged after 20 C; co-transcriptional: T7 transcription buffer with 10 mM NaCl, 30 mM MgCl2, 2 mM spermidine, 37 C; pH not given; details: protein: commercial; tags: fluorescent label; chain copies: 4; four-arm nanostar of 4 strands, 5' palindromic sticky end GCGC on S2-S4; aptamer 5' of the S1 sticky end
Sequence of streptavidin (fluorescently labeled) (P22629 25-183): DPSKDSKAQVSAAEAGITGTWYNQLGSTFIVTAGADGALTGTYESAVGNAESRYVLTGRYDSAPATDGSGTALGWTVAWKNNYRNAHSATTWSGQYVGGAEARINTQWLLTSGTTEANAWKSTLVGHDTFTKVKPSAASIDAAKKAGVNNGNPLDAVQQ

[2] = target: T1, P22 N peptide; test: as above; details: tags: 6-FAM (stated for single-stranded nanostar experiments); four-arm nanostar of 4 strands, 5' palindromic sticky end GAGCUC on S2-S4; boxB hairpin 5' of the S1 sticky end

Row | Binder | binding result [1] | binding result [2]
1 | B1 | binds | –
2 | B2 | – | binds
